Data from patent publication US20110129459A1 (Chugai, published 2011).
Where “and” joins values, the source holds several entries; their conditions need not be identical. Equal entries are not always repeated. Where two headings read alike, the source gives them in different places.

Assays:
[1] = target: T1, rhNR10 (recombinant human NR10) (human, UniProt Q8NI17 20-519, limits assumed); assay: SPR, Biacore T100; antibody captured on Protein A, rhNR10 as analyte
T1 construct: also called IL-31 receptor; IL31RA
T1 sequence: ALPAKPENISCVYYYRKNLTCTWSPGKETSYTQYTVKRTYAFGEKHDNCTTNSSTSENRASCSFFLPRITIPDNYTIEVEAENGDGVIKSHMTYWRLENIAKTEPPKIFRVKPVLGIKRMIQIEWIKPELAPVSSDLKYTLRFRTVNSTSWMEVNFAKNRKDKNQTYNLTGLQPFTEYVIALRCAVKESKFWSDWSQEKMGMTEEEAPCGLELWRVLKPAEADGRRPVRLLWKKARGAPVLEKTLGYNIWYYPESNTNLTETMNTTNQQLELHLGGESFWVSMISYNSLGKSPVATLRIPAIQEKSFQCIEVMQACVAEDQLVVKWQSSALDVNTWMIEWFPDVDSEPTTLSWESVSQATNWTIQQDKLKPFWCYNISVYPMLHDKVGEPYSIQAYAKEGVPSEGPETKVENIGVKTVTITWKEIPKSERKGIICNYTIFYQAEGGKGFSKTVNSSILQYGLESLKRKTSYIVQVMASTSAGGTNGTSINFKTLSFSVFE
Procedure: (§1) Kinetic analysis of the antigen-antibody reaction was carried out using Biacore T100 (GE Healthcare Biosciences). The antigen-antibody interaction was measured by immobilizing rec-Protein A (hereinafter Protein A) (ZYMED) onto a sensor chip, capturing an antibody on the immobilized Protein A, and then reacting the antigen as an analyte. Various concentrations of rhNR10 were used as the antigen. The kinetic parameters, association rate constant kₐ (1/Ms) and dissociation rate constant kd (1/s), were calculated from the sensorgrams obtained by the measurement. Then, KD (M) was determined based on the rate constants. Each parameter was determined using Biacore T100 Evaluation Software version 1.1 (GE Healthcare Biosciences).
(§2) The running buffer used was HBS-EP+. Each antibody was prepared at 0.25 μg/ml, or prepared so that about 100 RU would bind to Protein A. rhNR10 used as an analyte was prepared at 0, 38.5, 77.0, and 154 nM, or at 0, 19.25, and 77.01 nM using HBS-EP+. In the measurement, first, the antibody solution was captured on Protein A, and an analyte solution was reacted at a flow rate of 20 μL/min for three minutes. Then, the solution was switched to HBS-EP+, and the dissociation phase was measured for five minutes. After measurement of the dissociation phase, the sensor chip was regenerated by washing with 10 mM glycine-HCl (pH 1.5). The obtained sensorgrams were kinetically analyzed using the Biacore-specific data analysis software, Biacore T100 Evaluation Software Version 1.1.

[2] = target: T1, rhNR10 (recombinant human NR10); assay: as above; remark: listed apart in the source
Procedure: as §1, §2

[3] = target: T2, cytoplasmic domain-lacking human NR10 on CHO cells (hNR10-expressing CHO cells) (human, UniProt Q8NI17 20-553); assay: FMAT competition on hNR10-expressing CHO cells: antibody titrated against FMAT Blue-labeled hIL-31; FL1 = cell-bound labeled hIL-31
T2 construct: also called NR10-expressing cells
T2 sequence: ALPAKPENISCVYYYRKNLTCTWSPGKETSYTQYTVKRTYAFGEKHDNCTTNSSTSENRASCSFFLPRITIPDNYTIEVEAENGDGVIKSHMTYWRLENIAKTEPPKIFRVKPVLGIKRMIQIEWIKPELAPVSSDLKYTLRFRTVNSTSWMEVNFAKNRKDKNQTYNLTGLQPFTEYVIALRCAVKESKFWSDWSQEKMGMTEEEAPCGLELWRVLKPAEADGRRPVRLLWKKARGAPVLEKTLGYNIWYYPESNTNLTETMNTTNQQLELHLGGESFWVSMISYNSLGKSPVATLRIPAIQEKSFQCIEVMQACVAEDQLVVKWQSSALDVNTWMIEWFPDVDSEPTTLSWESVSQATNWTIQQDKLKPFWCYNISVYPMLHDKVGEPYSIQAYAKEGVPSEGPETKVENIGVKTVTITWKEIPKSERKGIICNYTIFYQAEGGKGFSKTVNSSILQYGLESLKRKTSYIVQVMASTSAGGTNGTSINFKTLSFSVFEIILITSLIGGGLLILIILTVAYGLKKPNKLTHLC
Procedure: Human IL-31 (R&D Systems) was labeled with FMAT Blue Monofunctional Reactive Dye (Applied Biosystems). 100 μl of hIL-31 prepared at 0.5 mg/ml using 50 mM sodium phosphate buffer (pH 8.0) was mixed with 5.25 μl of 25 nmoles FMAT Blue dissolved in DMSO (Junsei). After vortexing, the mixture was allowed to stand at room temperature for 15 minutes. The FMAT Blue-conjugating reaction with hIL-31 was terminated by adding 5 μl of 1 M Tris-HCl (pH 7.4) and 1.1 μl of 10% Tween20, and then FMAT Blue-labeled hIL-31 and unreacted FMAT Blue were separated by gel filtration using Superdex 75 (GE Healthcare, 17-0771-01) column with 0.1% Tween20/PBS developing solution.
(§3) Antibodies were assessed for the activity of inhibiting the IL-31/NR10 binding by using hNR10-expressing CHO cells as described below. The chimeric NS22 antibody and NS22_H0L0 (H chain, H0-SKSC/SEQ ID NO: 54; L chain, L0/SEQ ID NO: 56) were diluted at an appropriate concentration using Assay buffer (10 mM HEPES, 140 mM NaCl, 2.5 mM CaCl₂, 3 mM MgCl₂, 2% FBS, 0.01% NaN₃, pH7.4), and further eight serial dilutions were prepared at a common dilution ration of 2. The dilutions were added at 40 μl/well to plates (96-Well FMAT Plates, Applied Biosystems). Then, FMAT Blue-labeled hIL-31 was diluted 400 times with Assay buffer, and added at 20 μl/well. Finally, a cell suspension adjusted to 2.5×10⁵ cells/ml using Assay buffer was added at 40 μl/well (final 1×10⁴ cells/well). Two hours after addition of cells, the fluorescence (FL1) was measured using the 8200 Cellular Detection System (Applied Biosystems).

[4] = target: T1, rhNR10 (recombinant human NR10); assay: SPR, Biacore T100; antibody captured on Protein A, rhNR10 as analyte; remark: listed apart in the source
Procedure: as §1, §2

[5] = target: T2, cytoplasmic domain-lacking human NR10 …; assay: FMAT competition on hNR10-expressing CHO cells: antibody titrated against FMAT Blue-labeled hIL-31; FL1 = cell-bound labeled hIL-31; mean±S.D. (n=3)
Procedure: as §3
Each variant was tested for the activity of inhibiting the hIL-31/hNR10 binding by using FMAT. The test was carried out according to the method as described in Example 4.

[6] = target: T1, rhNR10 (recombinant human NR10); assay: SPR, Biacore T100; antibody captured on Protein A, rhNR10 as analyte; remark: listed apart in the source
Procedure: as §1, §2

[7] = target: T3, soluble human FcRn (FcRn extracellular domain / beta2-microglobulin complex) (human, UniProt P55899 24-290; P61769 21-119); assay: SPR, Biacore 3000; antibody captured on chip, soluble human FcRn as analyte, steady state affinity, pH 6.0
T3 construct: The expression constructs contain the signal regions (FcRn Met1-Leu290; beta2-microglobulin Met1-Met119); also called hFcRn
Procedure: The binding to human FcRn was assessed using Biacore 3000. An antibody was bound to Protein L or rabbit anti-human IgG Kappa chain antibody immobilized onto a sensor chip, human FcRn was added as an analyte for interaction with the antibody, and the affinity (KD) was calculated from the amount of bound human FcRn. Specifically, Protein L was immobilized onto sensor chip CM5 (BIACORE) by the amine coupling method using 50 mM Na-phosphate buffer (pH 6.0) containing 150 mM NaCl as the running buffer. Then, an antibody was diluted with the running buffer containing 0.02% Tween20, and injected and allowed to bind to the chip. Human FcRn was then injected to assess the binding activity of the antibody to the human FcRn.
The affinity was calculated using BIAevaluation software. The obtained sensorgram was used to calculate the amount of hFcRn bound to the antibody immediately before the end of human FcRn injection. This was fitted by the steady state affinity method to calculate the affinity of human FcRn for the antibody.

[8] = target: T1, rhNR10 (recombinant human NR10); assay: SPR, Biacore T100; antibody captured on Protein A, rhNR10 as analyte; remark: listed apart in the source
Procedure: as §1, §2

[9] = target: T1, rhNR10 (recombinant human NR10); assay: as above; remark: listed apart in the source
Procedure: as §1, §2

T3 sequence (P55899 24-290 limits assumed, chain 1 of 2): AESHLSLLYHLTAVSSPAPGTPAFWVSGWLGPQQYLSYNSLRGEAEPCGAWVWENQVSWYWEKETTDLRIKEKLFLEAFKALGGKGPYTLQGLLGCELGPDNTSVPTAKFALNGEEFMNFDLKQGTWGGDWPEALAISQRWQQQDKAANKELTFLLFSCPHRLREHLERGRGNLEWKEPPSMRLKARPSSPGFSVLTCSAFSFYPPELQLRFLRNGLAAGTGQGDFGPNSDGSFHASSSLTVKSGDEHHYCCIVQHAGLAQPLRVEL
T3 sequence (P61769 21-119 limits assumed, chain 2 of 2): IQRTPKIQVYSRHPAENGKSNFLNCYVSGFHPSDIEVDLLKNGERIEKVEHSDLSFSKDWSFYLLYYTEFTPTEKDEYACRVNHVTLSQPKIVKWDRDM

B1: humanized NS22 H0L0 with constant region SKSC (H0L0-SKSC) (antibody)
heavy: QVQLVQSGAEVKKPGASVKVSCKASGYTFTGYIMNWVRQAPGQGLEWMGLINPYNGGTSYNQKFKGRVTITADESTSTAYMELSSLRSEDTAVYYCARDGYDDGPYTMDYWGQGTLVTVSSASTKGPSVFPLAPSSKSTSESTAALGCLVKDYFPEPVTVSWNSGALTSGVHTFPAVLQSSGLYSLSSVVTVPSSNFGTQTYTCNVDHKPSNTKVDKTVERKSCVECPPCPAPPVAGPSVFLFPPKPKDTLMISRTPEVTCVVVDVSHEDPEVQFNWYVDGVEVHNAKTKPREEQFNSTFRVVSVLTVVHQDWLNGKEYKCKVSNKGLPAPIEKTISKTKGQPREPQVYTLPPSREEMTKNQVSLTCLVKGFYPSDIAVEWESNGQPENNYKTTPPMLDSDGSFFLYSKLTVDKSRWQQGNVFSCSVMHEALHNHYTQKSLSLSPGK
light: DIQMTQSPSSLSASVGDRVTITCRTSENIYSFLAWYQQKPGKAPKLLIYNAKTLAKGVPSRFSGSGSGTDFTLTISSLQPEDFATYYCQHHYESPLTFGGGTKVEIKRTVAAPSVFIFPPSDEQLKSGTASVVCLLNNFYPREAKVQWKVDNALQSGNSQESVTEQDSKDSTYSLSSTLTLSKADYEKHKVYACEVTHQGLSSPVTKSFNRGEC
- Kd [1]: 3.3 nM
- koff [1]: 0.0012 s⁻¹
- kon [1]: 370000 M⁻¹ s⁻¹
- Kd [2]: 3.2 nM
- koff [2]: 0.00091 s⁻¹
- kon [2]: 290000 M⁻¹ s⁻¹
- IC50 (read off the curve) [3]: ~0.1 µg/mL
- Kd [4]: 3.2 nM and 5.1 nM
- koff [4]: 0.00062 s⁻¹ and 0.00074 s⁻¹
- kon [4]: 190000 M⁻¹ s⁻¹ and 150000 M⁻¹ s⁻¹
- IC50 (read off the curve) [5]: ~0.1 µg/mL

B2: humanized NS22 H1L0 (H1-SKSC / L0) (antibody, V domains shown)
VH: QVQLVQSGAEVKKPGASVKVSCKASGYTFTGYIMNWVRQAPGQGLEWMGLINPYNGGTSYNQKFKGRVTITADKSTSTAYMELSSLRSEDTAVYYCARDGYDDGPYTMDYWGQGTLVTVSS
VL: DIQMTQSPSSLSASVGDRVTITCRTSENIYSFLAWYQQKPGKAPKLLIYNAKTLAKGVPSRFSGSGSGTDFTLTISSLQPEDFATYYCQHHYESPLTFGGGTKVEIKR
- binding result [3]: binds

B3: H0L0-M58 (antibody)
heavy: QVQLVQSGAEVKKPGASVKVSCKASGYTFTGYIMNWVRQAPGQGLEWMGLINPYNGGTSYNQKFKGRVTITADESTSTAYMELSSLRSEDTAVYYCARDGYDDGPYTMDYWGQGTLVTVSSASTKGPSVFPLAPSSKSTSGGTAALGCLVKDYFPEPVTVSWNSGALTSGVHTFPAVLQSSGLYSLSSVVTVPSSNFGTQTYTCNVDHKPSNTKVDKTVERKSCVECPPCPAPPVAGPSVFLFPPKPKDTLMISRTPEVTCVVVDVSQEDPEVQFNWYVDGVEVHNAKTKPREEQFNSTFRVVSVLTVVHQDWLNGKEYKCKVSNKGLPAPIEKTISKTKGQPREPQVYTLPPSQEEMTKNQVSLTCLVKGFYPSDIAVEWESNGQPENNYKTTPPMLDSDGSFFLYSKLTVDKSRWQEGNVFSCSVMHEALHNHYTQKSLSLSP
light: B1 light
notes: also called H0L0 (H chain, H0-M58)
- Kd [1]: 4.8 nM
- koff [1]: 0.00087 s⁻¹
- kon [1]: 180000 M⁻¹ s⁻¹
- Kd [6]: 4.2 nM
- koff [6]: 0.00088 s⁻¹
- kon [6]: 210000 M⁻¹ s⁻¹
- Kd [7]: 910 nM
- Kd [8]: 4.8 nM
- koff [8]: 0.00069 s⁻¹
- kon [8]: 140000 M⁻¹ s⁻¹
- Kd [9]: 4.8 nM
- koff [9]: 0.00078 s⁻¹
- kon [9]: 160000 M⁻¹ s⁻¹
